Source: US7037504B2, “Epidermal growth factor protein and gene, and methods of use therefor” (Waratah Pharmaceuticals, Inc., priority 2001, dated 2006)

Columns and labels:
carboxypeptidase B = target: T1, carboxypeptidase B (Homo sapiens, UniProt P15086); assay: Resistance in vitro to digestion with carboxypeptidase B; format: in vitro ADME
T1 sequence (P15086 111-417): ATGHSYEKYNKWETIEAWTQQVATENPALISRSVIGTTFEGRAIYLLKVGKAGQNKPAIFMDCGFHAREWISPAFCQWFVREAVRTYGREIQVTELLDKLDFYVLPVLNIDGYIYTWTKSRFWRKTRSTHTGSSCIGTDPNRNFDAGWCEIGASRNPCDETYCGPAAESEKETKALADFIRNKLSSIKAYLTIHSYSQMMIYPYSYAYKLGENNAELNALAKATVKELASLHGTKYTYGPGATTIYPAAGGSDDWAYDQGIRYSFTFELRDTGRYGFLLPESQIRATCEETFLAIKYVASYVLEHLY

[1] = system: anaesthetized gastric fistula rats; assay: Inhibition of gastric acid secretion in vivo; design: species or system rat; settings: after intravenous bolus injection of 8 μg
[2] = system: streptozotocin-induced diabetic rats; assay: Stimulation of islet neogenesis in vivo, glucose challenge in diabetic rats; design: species or system rat
Method: After treatment, rats were evaluated for ability to restore plasma glucose to resting levels, shown on the ordinate, as a function of time in minutes shown on the abscissa, after an oral glucose challenge.
EGF51N produced as above was used in an assay to measure to stimulation of islet neogenesis in vivo, as measured by lower blood concentration of treated animals to a subsequent challenge by glucose, to diabetic rats.

[3] = relative enzyme concentration (ratio of carboxypeptidase to EGF) 0.01
[4] = relative enzyme concentration (ratio of carboxypeptidase to EGF) 0.1
[5] = relative enzyme concentration (ratio of carboxypeptidase to EGF) 1 (excess enzyme)

Compound | % remaining (carboxypeptidase B; [3]) [%] | % remaining (carboxypeptidase B; [4]) [%] | % remaining (carboxypeptidase B; [5]) [%] | duration of inhibition of gastric acid production [1] [min] | onset of inhibition of gastric acid production [1] [min] | restoration of plasma glucose to resting levels after oral glucose challenge ([2]; 40 μg/kg/day of each of human gastrin and EGF51N, intraperitoneal continuous infusion for 14 days) | potency in stimulation of islet neogenesis ([2]; diabetic rats, glucose challenge, compared with positive control TGFα)
CC[C@H](C)[C@@H]1NC(=O)[C@H](Cc2ccc(O)cc2)NC(=O)CNC(=O)[C@H](C(C)C)NC(=O)[C@H](C(C)C)NC(=O)[C@@H](NC(=O)[C@H](CC(N)=O)NC(=O)[C@@H]2CSSC[C@@H]3NC(=O)[C@H](Cc4ccc(O)cc4)NC(=O)CNC(=O)[C@H](CC(=O)O)NC(=O)[C@H](Cc4c[nH]cn4)NC(=O)[C@H](CO)NC(=O)[C@H](CC(C)C)NC(=O)[C@@H]4CCCN4C(=O)[C@@H](NC(=O)[C@H](CCC(=O)O)NC(=O)[C@H](CO)NC(=O)[C@H](CC(=O)O)NC(=O)[C@H](CO)NC(=O)[C@@H](N)CC(N)=O)CSSC[C@H](NC(=O)[C@H](C(C)C)NC(=O)CNC(=O)[C@H](CC(=O)O)NC(=O)[C@H](Cc4c[nH]cn4)NC(=O)[C@H](CC(C)C)NC3=O)C(=O)N[C@@H](CCSC)C(=O)N[C@@H](Cc3ccc(O)cc3)C(=O)N[C@@H]([C@@H](C)CC)C(=O)N[C@@H](CCC(=O)O)C(=O)N[C@@H](C)C(=O)N[C@@H](CC(C)C)C(=O)N[C@@H](CC(=O)O)C(=O)N[C@@H](CCCCN)C(=O)N[C@@H](Cc3ccc(O)cc3)C(=O)N[C@@H](C)C(=O)N2)CSSC[C@@H](C(=O)N[C@@H](CCC(N)=O)C(=O)N[C@@H](Cc2ccc(O)cc2)C(=O)N[C@@H](CCCNC(=N)N)C(=O)N[C@@H](CC(=O)O)C(=O)N[C@@H](CC(C)C)C(=O)N[C@@H](CCCCN)C(=O)N[C@@H](Cc2c[nH]c3ccccc23)C(=O)N[C@@H](Cc2c[nH]c3ccccc23)C(=O)N[C@@H](CCC(=O)O)C(=O)N[C@@H](CC(C)C)C(=O)N[C@@H](CCCNC(=N)N)C(=O)O)NC(=O)[C@H](CCCNC(=N)N)NC(=O)[C@H](CCC(=O)O)NC(=O)CNC1=O [EGF53, reference compound] | 75 | 1 | 1 | – | – | – | –
EGF51N: modified human EGF, chain length 51 amino acids, C-terminus residue asparagine instead of glutamic acid; produced in Pichia pastoris (NSDSECPLSHDGYCLHDGVCMYIEALDKYACNCVVGYIGERCQYRSLKYYN; not fully specified; Recombinant human EGF51N) | 75 | 30 | 6 | 20 to 50 | 10 to 20 | Rapid restoration to resting levels of plasma glucose | equivalent to the positive control TGFα
